Measured values reported in US20200282035A1 (MILTENYI BIOTEC B V, published 2020).
Values belong to the binder of their own block, whether it stands above or below them.

Tests used:
CD66c [1] = molecular target: T1, CD66c (human, UniProt P40199 35-320); assay: antibody used for staining of human pancreatic cancer cells (flow cytometry, immunohistochemistry; Example 1); told in words only
T1 construct: whole, on cells
T1 sequence (looked up): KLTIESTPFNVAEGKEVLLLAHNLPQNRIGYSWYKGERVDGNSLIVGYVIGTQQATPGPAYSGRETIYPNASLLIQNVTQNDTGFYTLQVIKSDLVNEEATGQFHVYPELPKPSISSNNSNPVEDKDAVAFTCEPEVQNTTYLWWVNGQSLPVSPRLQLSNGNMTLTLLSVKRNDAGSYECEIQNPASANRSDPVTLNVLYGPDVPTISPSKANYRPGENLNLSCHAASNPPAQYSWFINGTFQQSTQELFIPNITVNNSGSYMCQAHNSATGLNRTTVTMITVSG

CD66c [2] = molecular target: T1, CD66c; assay: scFv as binding domain of a CAR on T cells; told in words only, no direct binding assay
CD73 [3] = molecular target: T2, CD73 (human, UniProt P21589 27-549); assay: antibody used for staining of human pancreatic cancer cells (flow cytometry, immunohistochemistry; Example 1); told in words only
T2 construct: whole, on cells
T2 sequence (looked up): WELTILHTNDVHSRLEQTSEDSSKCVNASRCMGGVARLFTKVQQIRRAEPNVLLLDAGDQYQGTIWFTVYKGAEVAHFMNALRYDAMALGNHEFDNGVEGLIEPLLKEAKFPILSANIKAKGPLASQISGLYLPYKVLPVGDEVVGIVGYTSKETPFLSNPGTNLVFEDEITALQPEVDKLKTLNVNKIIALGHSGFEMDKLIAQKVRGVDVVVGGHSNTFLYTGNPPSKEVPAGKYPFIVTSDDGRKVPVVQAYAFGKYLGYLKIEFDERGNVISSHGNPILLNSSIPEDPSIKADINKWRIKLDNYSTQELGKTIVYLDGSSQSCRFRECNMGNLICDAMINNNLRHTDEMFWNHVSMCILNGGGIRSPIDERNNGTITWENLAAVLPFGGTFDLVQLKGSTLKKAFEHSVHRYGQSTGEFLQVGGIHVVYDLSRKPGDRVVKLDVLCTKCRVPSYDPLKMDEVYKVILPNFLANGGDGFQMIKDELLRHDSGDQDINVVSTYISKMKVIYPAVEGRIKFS

CD142 [4] = molecular target: T3, CD142 (human, UniProt P13726 33-295); assay: scFv as binding domain of a CAR on T cells; told in words only, no direct binding assay
T3 construct: whole, on cells

CD73 [5] = molecular target: T2, CD73; assay: as above
CD142 [6] = molecular target: T3, CD142; assay: antibody used for staining of human pancreatic cancer cells (flow cytometry, immunohistochemistry; Example 1); told in words only
TSPAN8 = molecular target: T4, TSPAN8 (human, UniProt P19075 1-237); assay: scFv as binding domain of a CAR on T cells; told in words only, no direct binding assay
T4 construct: whole, on cells
T4 sequence (looked up): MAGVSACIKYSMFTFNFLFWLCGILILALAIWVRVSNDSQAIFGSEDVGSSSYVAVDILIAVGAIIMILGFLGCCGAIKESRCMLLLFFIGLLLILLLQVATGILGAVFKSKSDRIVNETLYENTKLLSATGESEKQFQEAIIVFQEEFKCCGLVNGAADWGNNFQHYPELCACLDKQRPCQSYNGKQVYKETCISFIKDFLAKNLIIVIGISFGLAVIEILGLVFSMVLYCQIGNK

CD318 = molecular target: T5, CD318 (human, UniProt Q9H5V8 30-836); assay: as above
T5 construct: whole, on cells
T5 sequence (looked up): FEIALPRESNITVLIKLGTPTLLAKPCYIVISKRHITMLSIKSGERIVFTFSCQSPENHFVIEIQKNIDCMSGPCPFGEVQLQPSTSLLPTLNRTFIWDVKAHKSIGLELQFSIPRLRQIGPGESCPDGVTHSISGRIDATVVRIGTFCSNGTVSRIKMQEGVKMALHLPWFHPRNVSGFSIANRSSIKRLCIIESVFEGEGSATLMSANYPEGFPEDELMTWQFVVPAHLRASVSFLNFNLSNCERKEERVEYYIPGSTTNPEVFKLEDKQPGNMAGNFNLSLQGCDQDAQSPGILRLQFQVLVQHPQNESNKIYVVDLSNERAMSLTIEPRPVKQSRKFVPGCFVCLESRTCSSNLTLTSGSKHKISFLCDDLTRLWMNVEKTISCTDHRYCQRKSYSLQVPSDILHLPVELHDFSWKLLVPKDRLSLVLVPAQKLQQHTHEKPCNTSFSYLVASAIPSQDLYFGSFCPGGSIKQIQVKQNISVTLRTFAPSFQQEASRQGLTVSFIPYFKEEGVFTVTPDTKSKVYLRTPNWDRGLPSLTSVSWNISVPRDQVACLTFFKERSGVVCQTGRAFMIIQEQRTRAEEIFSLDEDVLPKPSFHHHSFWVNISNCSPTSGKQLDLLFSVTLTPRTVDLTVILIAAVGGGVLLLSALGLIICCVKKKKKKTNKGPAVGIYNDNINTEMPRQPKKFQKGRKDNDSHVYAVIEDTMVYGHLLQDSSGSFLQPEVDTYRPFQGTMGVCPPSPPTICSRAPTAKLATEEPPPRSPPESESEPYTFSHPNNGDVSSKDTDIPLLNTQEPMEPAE

binding result (CD66c [1]): binds
B1: CD66c specific antibody (antibody, V domains shown)
VH: QVTLKESGPGILKPSQTLSLTCSFSGFSLSTSGMGVGWIRQPSGKSLEWLAHIWWNDERYYNPSLKNQLTISKDTSRNQVFLKITSVDTADTATYYCARSPRGYFDYWGHGTTLTVSS
VL: DIVMTQSQKFMSTSVGDRVSVTCKASQNVVTNVAWYQQTPGQSPKALIYSASYRYSGVPDRFSGSGSGTDFTLTISNVQSGDLAEYFCQQYNSYPLTFGAGTKLELK
notes: also called CD66c VH

binding result (CD66c [2]): binds
B2: CD66c specific CAR sequence VH-linker-VL (scFv)
scFv: QVTLKESGPGILKPSQTLSLTCSFSGFSLSTSGMGVGWIRQPSGKSLEWLAHIWWNDERYYNPSLKNQLTISKDTSRNQVFLKITSVDTADTATYYCARSPRGYFDYWGHGTTLTVSSGGGGSGGGGSGGGGSDIVMTQSQKFMSTSVGDRVSVTCKASQNVVTNVAWYQQTPGQSPKALIYSASYRYSGVPDRFSGSGSGTDFTLTISNVQSGDLAEYFCQQYNSYPLTFGAGTKLELK
notes: not shown: hinge, transmembrane and signalling domains of the CAR

binding result (CD73 [3]): binds
B3: CD73 specific antibody (antibody, V domains shown)
VH: EVQLQQSGAELVKPGASVKLSCTASGFNIKDTYIHWVKQRPEQGLEWIGRIDPATGNTEYDPKFQGKATITADTSSNTAYLHLSSLTSEDTAVYYCARGYYGSSYPPWFAYWGQGTLVTVSA
VL: DIVMTQSHKFMSTSVGDRVSITCKASQDVGSAVAWYQQKPGQSPKLLIYWASTRHTGVPDRFTGSGSGTDFTLTISNVQSEDLADYFCQQYSSYPLTFGAGTKLELK
notes: also called CD73 VH

binding result (CD142 [4]): binds
B4: CD142 specific CAR sequence VL-linker-VH (scFv)
scFv: QIVLTQSPALMSASPGEKVTMTCSASSSVTYMYWYQQKPRSSPKPWIYLTSNLASGVPARFSGSGSGTSYSLTISSVEAEDAATYYCQQWSSNPLTFGAGTKLELKGGGGSGGGGSGGGGSQVQLKQSGPGLVQPSQSLSITCTVSGFSLSNYGVHWVRQSPGKGLEWLGVIWSGGSTDYNVAFISRLIITKDNSKSQVFLKMNSLQADDTAIYFCARTTGSVFNAMDHWGQGTSVTVSS
notes: as for B2

binding result (CD73 [5]): binds
B5: CD73 specific CAR sequence VH-linker-VL (scFv)
scFv: EVQLQQSGAELVKPGASVKLSCTASGFNIKDTYIHWVKQRPEQGLEWIGRIDPATGNTEYDPKFQGKATITADTSSNTAYLHLSSLTSEDTAVYYCARGYYGSSYPPWFAYWGQGTLVTVSAGGGGSGGGGSGGGGSDIVMTQSHKFMSTSVGDRVSITCKASQDVGSAVAWYQQKPGQSPKLLIYWASTRHTGVPDRFTGSGSGTDFTLTISNVQSEDLADYFCQQYSSYPLTFGAGTKLELK
notes: as for B2

binding result (CD142 [6]): binds
B6: CD142 specific antibody (antibody, V domains shown)
VH: QVQLKQSGPGLVQPSQSLSITCTVSGFSLSNYGVHWVRQSPGKGLEWLGVIWSGGSTDYNVAFISRLIITKDNSKSQVFLKMNSLQADDTAIYFCARTTGSVFNAMDHWGQGTSVTVSS
VL: QIVLTQSPALMSASPGEKVTMTCSASSSVTYMYWYQQKPRSSPKPWIYLTSNLASGVPARFSGSGSGTSYSLTISSVEAEDAATYYCQQWSSNPLTFGAGTKLELK
notes: also called CD142 VH

binding result (CD142 [4]): binds
B7: CD142 specific CAR sequence VH-linker-VL (scFv)
scFv: QVQLKQSGPGLVQPSQSLSITCTVSGFSLSNYGVHWVRQSPGKGLEWLGVIWSGGSTDYNVAFISRLIITKDNSKSQVFLKMNSLQADDTAIYFCARTTGSVFNAMDHWGQGTSVTVSSGGGGSGGGGSGGGGSQIVLTQSPALMSASPGEKVTMTCSASSSVTYMYWYQQKPRSSPKPWIYLTSNLASGVPARFSGSGSGTSYSLTISSVEAEDAATYYCQQWSSNPLTFGAGTKLELK
notes: as for B2

binding result (TSPAN8): binds
B8: TSPAN8 specific CAR sequence VH-linker-VL (scFv)
scFv: EVKLLESGGGLVQPGGSMRLSCAASGFTFTDFYMNWIRQPAGKAPEWLGFIRNKASGYTTEYNPSVKGRFTISRDNTQNMLYLQMNTLRAEDTATYYCARAHSYYGYDYFDYWGQGVMVTVSSGGGGSGGGGSGGGGSDIQMTQSPASLSASLEEIVTITCQASQDIGNWLSWYQQKPGKSPQLLIYGATSLADGVPSRFSGSRSGTQYSLKISRLQVEDIRIYYCLQAYSAPWTFGGGTKLELK
notes: as for B2

binding result (CD73 [5]): binds
B9: CD73 specific CAR sequence VL-linker-VH (scFv)
scFv: DIVMTQSHKFMSTSVGDRVSITCKASQDVGSAVAWYQQKPGQSPKLLIYWASTRHTGVPDRFTGSGSGTDFTLTISNVQSEDLADYFCQQYSSYPLTFGAGTKLELKGGGGSGGGGSGGGGSEVQLQQSGAELVKPGASVKLSCTASGFNIKDTYIHWVKQRPEQGLEWIGRIDPATGNTEYDPKFQGKATITADTSSNTAYLHLSSLTSEDTAVYYCARGYYGSSYPPWFAYWGQGTLVTVSA
notes: as for B2

binding result (TSPAN8): binds
B10: TSPAN8 specific CAR sequence VL-linker-VH (scFv)
scFv: DIQMTQSPASLSASLEEIVTITCQASQDIGNWLSWYQQKPGKSPQLLIYGATSLADGVPSRFSGSRSGTQYSLKISRLQVEDIRIYYCLQAYSAPWTFGGGTKLELKGGGGSGGGGSGGGGSEVKLLESGGGLVQPGGSMRLSCAASGFTFTDFYMNWIRQPAGKAPEWLGFIRNKASGYTTEYNPSVKGRFTISRDNTQNMLYLQMNTLRAEDTATYYCARAHSYYGYDYFDYWGQGVMVTVSS
notes: as for B2

binding result (CD66c [2]): binds
B11: CD66c specific CAR sequence VL-linker-VH (scFv)
scFv: DIVMTQSQKFMSTSVGDRVSVTCKASQNVVTNVAWYQQTPGQSPKALIYSASYRYSGVPDRFSGSGSGTDFTLTISNVQSGDLAEYFCQQYNSYPLTFGAGTKLELKGGGGSGGGGSGGGGSQVTLKESGPGILKPSQTLSLTCSFSGFSLSTSGMGVGWIRQPSGKSLEWLAHIWWNDERYYNPSLKNQLTISKDTSRNQVFLKITSVDTADTATYYCARSPRGYFDYWGHGTTLTVSS
notes: as for B2

binding result (CD318): binds
B12: CD318 specific CAR sequence VL-linker-VH (scFv)
scFv: DIVMTQSHKFMSTSVGDRVSITCKASQDVSTAVAWYQQKSGQSPKLLIYWASTRHTGVPDRFTGSGSGTDYTLTISSVQAEDLALYYCQQHYSTPYTFGGGTKLEIKGGGGSGGGGSGGGGSEVQLQQSGAELVRPGALVKLSCKASGFNIKDYYIHWVKQRPEQGLEWIGWIDPENGHTIYDPKFQGKASITADTSSNTAYLQLSSLTSEDTAVYYCARLTGTTYAMDYWGQGTSVTVSS
notes: as for B2

binding result (CD318): binds
B13: CD318 specific CAR sequence VH-linker-VL (scFv)
scFv: EVQLQQSGAELVRPGALVKLSCKASGFNIKDYYIHWVKQRPEQGLEWIGWIDPENGHTIYDPKFQGKASITADTSSNTAYLQLSSLTSEDTAVYYCARLTGTTYAMDYWGQGTSVTVSSGGGGSGGGGSGGGGSDIVMTQSHKFMSTSVGDRVSITCKASQDVSTAVAWYQQKSGQSPKLLIYWASTRHTGVPDRFTGSGSGTDYTLTISSVQAEDLALYYCQQHYSTPYTFGGGTKLEIK
notes: as for B2
